From patent publication US20180094045A1 (ASCLEPIUS SUZHOU TECHNOLOGY COMPANY GROUP, published 2018) come the findings set out here.

The target of test [1] is T1, Robo1 (ORIGEN Company, number: TP327713) (UniProt Q9Y6N7 26-1651, limits assumed).
T1 construct: also called receptor Robo1; target protein Robo1
The experiment in a line: SPR (BIAcore), Robo1 bound on CM5 chip. How it is done:
(§1) The affinity constant between the prepared protein and Robo1 was determined by SPR (Surface Plasmon resonance BIAcore200). The Robo1 (ORIGEN Company, number: TP327713) was bound on CM5 chip and used to analysis the interaction between fusion protein Slit2D2-HSA and receptor Robo1. Kinetic measurements were carried out according to the method referred by Canziani et al. (2004, Anal. Biochem. 325:301-307), simultaneously, the same method was applied to measure the affinity between Slit2N protein (Slit2N is a protein at N-terminal of slit2 with a molecular weight of about 120 KDa) and Robo1.

In test [2] the target is T1, Robo1 (ORIGEN Company, number: TP327713). Nature of the test: SPR (BIAcore), Robo1 bound on CM5 chip; column head 'Kd (nM)'. The protocol:
as §1

One may read the kon as a measure of how fast the partners come together. One may read the Kd as a measure of binding affinity in units of concentration. A low value points to a tighter complex.

T1 sequence (Q9Y6N7 26-1651 limits assumed): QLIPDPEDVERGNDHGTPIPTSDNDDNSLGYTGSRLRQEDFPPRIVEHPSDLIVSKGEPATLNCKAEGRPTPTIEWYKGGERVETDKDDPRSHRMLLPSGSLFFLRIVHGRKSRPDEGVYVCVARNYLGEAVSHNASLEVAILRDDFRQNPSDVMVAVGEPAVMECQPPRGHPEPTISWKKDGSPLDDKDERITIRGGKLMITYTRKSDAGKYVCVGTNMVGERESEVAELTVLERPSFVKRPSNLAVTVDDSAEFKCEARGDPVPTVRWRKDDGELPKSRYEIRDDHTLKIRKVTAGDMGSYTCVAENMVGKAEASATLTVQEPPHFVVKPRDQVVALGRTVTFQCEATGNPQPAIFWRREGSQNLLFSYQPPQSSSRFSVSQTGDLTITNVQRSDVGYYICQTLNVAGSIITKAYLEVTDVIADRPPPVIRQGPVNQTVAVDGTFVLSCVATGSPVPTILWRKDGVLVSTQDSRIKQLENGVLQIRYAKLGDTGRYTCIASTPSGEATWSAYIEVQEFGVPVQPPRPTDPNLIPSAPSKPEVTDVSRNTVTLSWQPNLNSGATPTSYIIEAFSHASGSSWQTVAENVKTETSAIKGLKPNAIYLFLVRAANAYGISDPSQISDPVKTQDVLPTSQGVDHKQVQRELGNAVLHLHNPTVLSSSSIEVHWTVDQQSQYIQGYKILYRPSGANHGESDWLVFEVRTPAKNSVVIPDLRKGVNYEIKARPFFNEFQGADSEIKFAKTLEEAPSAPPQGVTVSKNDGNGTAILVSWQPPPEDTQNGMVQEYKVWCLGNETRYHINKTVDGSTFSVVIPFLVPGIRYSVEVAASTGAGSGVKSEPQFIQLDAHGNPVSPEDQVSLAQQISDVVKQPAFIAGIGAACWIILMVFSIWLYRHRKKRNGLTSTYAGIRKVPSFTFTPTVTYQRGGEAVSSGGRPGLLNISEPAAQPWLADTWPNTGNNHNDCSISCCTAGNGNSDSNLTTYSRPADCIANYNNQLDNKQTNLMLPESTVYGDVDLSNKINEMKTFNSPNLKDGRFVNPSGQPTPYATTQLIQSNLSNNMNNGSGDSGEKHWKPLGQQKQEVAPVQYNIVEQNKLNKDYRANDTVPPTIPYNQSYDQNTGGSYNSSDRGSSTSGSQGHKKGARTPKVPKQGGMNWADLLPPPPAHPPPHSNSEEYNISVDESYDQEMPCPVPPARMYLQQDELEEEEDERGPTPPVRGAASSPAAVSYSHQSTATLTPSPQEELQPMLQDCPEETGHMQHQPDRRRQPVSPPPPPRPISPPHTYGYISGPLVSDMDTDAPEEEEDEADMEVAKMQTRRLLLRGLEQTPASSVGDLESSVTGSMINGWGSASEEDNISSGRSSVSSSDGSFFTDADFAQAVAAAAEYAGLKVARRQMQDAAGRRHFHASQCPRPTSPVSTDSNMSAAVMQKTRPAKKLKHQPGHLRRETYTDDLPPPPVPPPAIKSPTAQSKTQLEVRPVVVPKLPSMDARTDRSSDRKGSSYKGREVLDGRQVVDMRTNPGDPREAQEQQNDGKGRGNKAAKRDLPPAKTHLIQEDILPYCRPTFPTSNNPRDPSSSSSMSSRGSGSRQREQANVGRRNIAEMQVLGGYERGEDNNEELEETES

B1: Slit2N protein (ligand, UniProt O94813 31-1121, looked up)
chain: QCSCSGSTVDCHGLALRSVPRNIPRNTERLDLNGNNITRITKTDFAGLRHLRVLQLMENKISTIERGAFQDLKELERLRLNRNHLQLFPELLFLGTAKLYRLDLSENQIQAIPRKAFRGAVDIKNLQLDYNQISCIEDGAFRALRDLEVLTLNNNNITRLSVASFNHMPKLRTFRLHSNNLYCDCHLAWLSDWLRQRPRVGLYTQCMGPSHLRGHNVAEVQKREFVCSGHQSFMAPSCSVLHCPAACTCSNNIVDCRGKGLTEIPTNLPETITEIRLEQNTIKVIPPGAFSPYKKLRRIDLSNNQISELAPDAFQGLRSLNSLVLYGNKITELPKSLFEGLFSLQLLLLNANKINCLRVDAFQDLHNLNLLSLYDNKLQTIAKGTFSPLRAIQTMHLAQNPFICDCHLKWLADYLHTNPIETSGARCTSPRRLANKRIGQIKSKKFRCSAKEQYFIPGTEDYRSKLSGDCFADLACPEKCRCEGTTVDCSNQKLNKIPEHIPQYTAELRLNNNEFTVLEATGIFKKLPQLRKINFSNNKITDIEEGAFEGASGVNEILLTSNRLENVQHKMFKGLESLKTLMLRSNRITCVGNDSFIGLSSVRLLSLYDNQITTVAPGAFDTLHSLSTLNLLANPFNCNCYLAWLGEWLRKKRIVTGNPRCQKPYFLKEIPIQDVAIQDFTCDDGNDDNSCSPLSRCPTECTCLDTVVRCSNKGLKVLPKGIPRDVTELYLDGNQFTLVPKELSNYKHLTLIDLSNNRISTLSNQSFSNMTQLLTLILSYNRLRCIPPRTFDGLKSLRLLSLHGNDISVVPEGAFNDLSALSHLAIGANPLYCDCNMQWLSDWVKSEYKEPGIARCAGPGEMADKLLLTTPSKKFTCQGPVDVNILAKCNPCLSNPCKNDGTCNSDPVDFYRCTCPYGFKGQDCDVPIHACISNPCKHGGTCHLKEGEEDGFWCICADGFEGENCEVNVDDCEDNDCENNSTCVDGINNYTCLCPPEYTGELCEEKLDFCAQDLNPCQHDSKCILTPKGFKCDCTPGYVGEHCDIDFDDCQDNKCKNGAHCTDAVNGYTCICPEGYSGLFCEFSPPMVLPR
notes: domain: protein at N-terminal of slit2 with a molecular weight of about 120 KDa; Comparator in the SPR experiment
Consider B1, for which the kon in test [1] amounted to 744000 M⁻¹ s⁻¹. Besides, the Kd in test [2] came to 4.5 nM.
